According to the supplement of paper PMC9233669:
Variants at the floor of the assay were thinned out.

Experiments:
[1] = test system: biotinyl-Phe-oxazolone; assay: self-aminoacylation, catalytic enhancement (BFO) (fold over background); higher = more active; k-Seq, kA / k0A0; sequences stand for … in GGGAAUGGAUCCACAUCUACGAAUUC…UUCACUGCAGACUUGACGAAGCUG
Procedure, shortened: (§1)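 Mutagenized RNA pools (0.43 μM; 21-nt variable region) were treated with 2–1250 μM of each biotinyl-aminoacyl-oxazolone. Conditions were 50 μL HEPES/NaCl/KCl/MgCl2/CaCl2 buffer, 5% acetonitrile, pH 6.9–7.0, room temperature, 90 minutes. Catalytic enhancement, the median kA relative to the uncatalyzed rate, was derived from streptavidin capture, qPCR and Illumina sequencing.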

[2] = test system: biotinyl-Ile-oxazolone; assay: self-aminoacylation, catalytic enhancement (BIO) (fold over background); higher = more active; k-Seq, kA / k0A0; sequences stand for … in GGGAAUGGAUCCACAUCUACGAAUUC…UUCACUGCAGACUUGACGAAGCUG
Procedure, shortened: as §1

[3] = test system: biotinyl-Met-oxazolone; assay: self-aminoacylation, catalytic enhancement (BMO) (fold over background); higher = more active; k-Seq, kA / k0A0; sequences stand for … in GGGAAUGGAUCCACAUCUACGAAUUC…UUCACUGCAGACUUGACGAAGCUG
Procedure, shortened: as §1

[4] = test system: biotinyl-Val-oxazolone; assay: self-aminoacylation, catalytic enhancement (BVO) (fold over background); higher = more active; k-Seq, kA / k0A0; sequences stand for … in GGGAAUGGAUCCACAUCUACGAAUUC…UUCACUGCAGACUUGACGAAGCUG
Procedure, shortened: as §1

[5] = test system: biotinyl-Leu-oxazolone; assay: self-aminoacylation, catalytic enhancement (BLO) (fold over background); higher = more active; k-Seq, kA / k0A0; sequences stand for … in GGGAAUGGAUCCACAUCUACGAAUUC…UUCACUGCAGACUUGACGAAGCUG
Procedure, shortened: as §1

[6] = test system: biotinyl-Trp-oxazolone; assay: self-aminoacylation, catalytic enhancement (BWO) (fold over background); higher = more active; k-Seq, kA / k0A0; sequences stand for … in GGGAAUGGAUCCACAUCUACGAAUUC…UUCACUGCAGACUUGACGAAGCUG
Procedure, shortened: as §1

Sequence	self-aminoacylation [1]	self-aminoacylation [2]	self-aminoacylation [3]	self-aminoacylation [4]	self-aminoacylation [5]	self-aminoacylation [6]
CCACACUACAAGCGAUCGGUC [Fam1B.1 aminoacylation ribozyme variant]	0.866	1.09	0.977	1.29	1.24	1.03
CCACACUACAAGGAAUCGGUC [Fam1B.1 aminoacylation ribozyme variant]	0.823	1.01	0.84	1.03	0.947	0.681
CCACACUACAUGCAAUCGGUC [Fam1B.1 aminoacylation ribozyme variant]	0.877	0.737	0.743	0.888	0.762	0.812
CCACACUCCAAGCAAUCGGGC [Fam1B.1 aminoacylation ribozyme variant]	1.07	2.01	1.31	2.08	1.65	2.55
CCACACUCCAAGCAAUCGGUA [Fam1B.1 aminoacylation ribozyme variant]	0.936	1.15	0.699	1.34	1.27	1.25
CCACACUCCAAGCAAUCGGUC [Fam1B.1 aminoacylation ribozyme variant]	2.6	0.984	0.789	1.08	0.855	1.59
CCACACUCCAAGGAAUCGGUC [Fam1B.1 aminoacylation ribozyme variant]	1.46	1.35	1.32	1.31	1.08	1.34
CCACACUGCAAGCAAUCGGCC [Fam1B.1 aminoacylation ribozyme variant]	20.5	3.29	2.93	5.56	1.99	3.9
CCACACUGCAAGCAAUCGGUG [Fam1B.1 aminoacylation ribozyme variant]	31.5	3.4	4.9	3.12	7.11	5.82
CCACACUGCAAGGAAUCGGUC [Fam1B.1 aminoacylation ribozyme variant]	3.84	1.39	1.35	1.32	1.3	1.51
CCACACUGCCAGCAAUCGGUC [Fam1B.1 aminoacylation ribozyme variant]	2.23	1.5	1.36	1.58	1.47	1.39
CCACACUGUAAGCAAUCGGUC [Fam1B.1 aminoacylation ribozyme variant]	0.898	1.06	0.953	1.14	1.09	1.16
CCACACUUAAAGAAAUCGGUC [Fam1B.1 aminoacylation ribozyme variant]	0.562	0.754	0.734	0.785	0.749	0.679
CCACACUUAAAGCAAUCCGUC [Fam1B.1 aminoacylation ribozyme variant]	0.452	0.998	0.879	1.17	0.838	0.523
CCACACUUAAAGCCAUCGGUC [Fam1B.1 aminoacylation ribozyme variant]	0.617	0.992	0.801	1.11	0.913	1.06
CCACACUUCAAACAAUCGCUC [Fam1B.1 aminoacylation ribozyme variant]	1.32	1.1	0.869	1.33	1.29	0.765
CCACACUUCAAACAAUCGGCC [Fam1B.1 aminoacylation ribozyme variant]	8.32	1.77	1.96	2.19	1.61	7.9
CCACACUUCAAACAAUCGGUA [Fam1B.1 aminoacylation ribozyme variant]	1.62	0.873	0.947	1.02	0.734	1.47
CCACACUUCAAACAUUCGGUC [Fam1B.1 aminoacylation ribozyme variant]	0.837	1.49	1.47	1.4	1.45	1.32
CCACACUUCAACCAAUCGGGC [Fam1B.1 aminoacylation ribozyme variant]	3.78	1.91	1.75	2.93	2.24	2.09
CCACACUUCAACCAAUCGGUA [Fam1B.1 aminoacylation ribozyme variant]	1.08	1.1	1.56	1.1	0.859	1.63
CCACACUUCAACCAAUCGGUC [Fam1B.1 aminoacylation ribozyme variant]	60.5	1.38	1.38	1.5	2.17	35.2
CCACACUUCAACCACUCGGUC [Fam1B.1 aminoacylation ribozyme variant]	0.849	1.18	1.24	1.28	1.1	0.978
CCACACUUCAACCCAUCGGUC [Fam1B.1 aminoacylation ribozyme variant]	0.791	1.34	1.11	1.72	1.24	1.04
CCACACUUCAAGAAAUCUGUC [Fam1B.1 aminoacylation ribozyme variant]	0.421	0.306	0.349	0.402	0.292	0.349
CCACACUUCAAGACAUCGGUC [Fam1B.1 aminoacylation ribozyme variant]	0.815	1	0.914	0.896	0.879	0.762

Sequence	self-aminoacylation [1]	self-aminoacylation [2]	self-aminoacylation [3]	self-aminoacylation [4]	self-aminoacylation [5]	self-aminoacylation [6]
CCACACUUCAAGCAAACGAUC [Fam1B.1 aminoacylation ribozyme variant]	0.772	0.513	0.44	0.589	0.422	0.585
CCACACUUCAAGCAACCAGUC [Fam1B.1 aminoacylation ribozyme variant]	1.26	1.08	1.04	0.941	0.725	0.79
CCACACUUCAAGCAACCCGUC [Fam1B.1 aminoacylation ribozyme variant]	0.819	1.14	0.779	1.17	0.763	0.843
CCACACUUCAAGCAACCGGUG [Fam1B.1 aminoacylation ribozyme variant]	33.9	3.92	5.05	4	7.08	6.05
CCACACUUCAAGCAAGCGGAC [Fam1B.1 aminoacylation ribozyme variant]	0.42	0.959	1.16	1.15	0.794	0.604
CCACACUUCAAGCAAGCGGGC [Fam1B.1 aminoacylation ribozyme variant]	6.38	1.61	2.41	2.29	1.59	2.67
CCACACUUCAAGCAAGUGGUC [Fam1B.1 aminoacylation ribozyme variant]	0.777	0.441	0.43	0.611	0.449	0.536
CCACACUUCAAGCAAUAGUUC [Fam1B.1 aminoacylation ribozyme variant]	1.21	0.703	0.501	0.644	0.55	0.431
CCACACUUCAAGCAAUCCGAC [Fam1B.1 aminoacylation ribozyme variant]	0.729	0.612	0.516	0.703	0.586	0.28
CCACACUUCAAGCAAUCCGGC [Fam1B.1 aminoacylation ribozyme variant]	1.71	3.02	3.54	3.66	2.88	2.1
CCACACUUCAAGCAAUCCGUA [Fam1B.1 aminoacylation ribozyme variant]	0.597	0.876	0.668	1.04	0.927	0.837
CCACACUUCAAGCAAUCCGUG [Fam1B.1 aminoacylation ribozyme variant]	26.9	2.79	3.21	2.47	5.32	2.78
CCACACUUCAAGCAAUCGCGC [Fam1B.1 aminoacylation ribozyme variant]	6.7	2.08	2.16	3.35	3.04	2.44
CCACACUUCAAGCAAUCGGCA [Fam1B.1 aminoacylation ribozyme variant]	1.07	1.18	0.777	1.37	1.59	1.28
CCACACUUCAAGCAAUCGGGA [Fam1B.1 aminoacylation ribozyme variant]	1.46	1.55	1.51	1.8	1.04	1.87
CCACACUUCAAGCAAUCGGGG [Fam1B.1 aminoacylation ribozyme variant]	1.38	1.71	1.21	2.19	2.28	2.3
CCACACUUCAAGCAAUCGGGU [Fam1B.1 aminoacylation ribozyme variant]	0.915	1.51	1.41	1.8	1.87	1.06
CCACACUUCAAGCAAUCGGUG [Fam1B.1 aminoacylation ribozyme variant]	17.1	3.68	5.19	3.68	7.2	5.45
CCACACUUCAAGCAAUCGUUC [Fam1B.1 aminoacylation ribozyme variant]	1.31	0.714	0.57	0.845	0.579	0.675
CCACACUUCAAGCAAUCGUUG [Fam1B.1 aminoacylation ribozyme variant]	1.26	0.944	0.877	0.908	0.776	1.15
CCACACUUCAAGCAAUCUGUC [Fam1B.1 aminoacylation ribozyme variant]	0.824	0.368	0.34	0.518	0.327	0.369
CCACACUUCAAGCAAUUGGAC [Fam1B.1 aminoacylation ribozyme variant]	0.614	0.72	0.664	0.697	0.583	0.337
CCACACUUCAAGCAAUUGGUC [Fam1B.1 aminoacylation ribozyme variant]	1.43	0.702	0.625	0.707	0.594	0.858
CCACACUUCAAGCACUUGGUC [Fam1B.1 aminoacylation ribozyme variant]	1.03	0.816	0.775	0.65	0.818	0.616
CCACACUUCAAGCAGUAGGUC [Fam1B.1 aminoacylation ribozyme variant]	0.807	0.633	0.425	0.815	0.51	0.401
